The values below come from the supplement of paper PMC12764529.

The nature of series [1]: folding stability dG unfold from chymotrypsin proteolysis; higher = more stable. The gist of the method:
(§1)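 Unfolding free energy was derived, per protease or combined, by relating Bayesian-fitted K50 values from sequencing counts to a sequence-predicted unfolded-state K50 and a shared folded-state K50. The underlying digests exposed cysteine-free mini-proteins under 80 residues, in a PA-tagged cDNA display construct, to trypsin and chymotrypsin at 11 threefold-diluted concentrations and to a no-protease condition. A filter kept only designs with AlphaFold2 dimer inter-PAE above 15.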

Series [2] is described as follows: folding stability dG unfold from trypsin proteolysis; higher = more stable. The method in brief: as §1
A short description of series [3]: folding stability dG unfold (combined trypsin and chymotrypsin); higher = more stable. The gist of the method: as §1

± gives the half width of the 95% confidence interval.

Take “SAGGSAGGSAGGSPGVGERVVPVEDGVVRVRVFPDFAVVEYENGGVETMTLDDLVRALSSAGGSAGGSAGGS [r4_242_TrMRF]”: the “folding stability dG unfold” value amounted to 0.65 ± 0.053 kcal/mol in series [1], 0.497 ± 0.064 kcal/mol in series [2] and 0.601 ± 0.14 kcal/mol in series [3].
With “SAGGSAGGSAGGSPLKIKIVEVKEHKNPDGKPRRRIMMRFPNGRTLHIDMNGNLEIMPASAGGSAGGSAGGS [r4_111_TrROS]”, the “folding stability dG unfold” value in series [1] is 0.176 ± 0.32 kcal/mol; in series [2], 0.0795 ± 0.19 kcal/mol; in series [3], 0.188 ± 0.22 kcal/mol.
For the sequence “SAGGSAGGSAGGSPNIYYTSGPFALVVTLPNGTKIVIPGSNIENLKNYNLISVEVVSTDSAGGSAGGSAGGS [r4_348_TrMRF]”, the results for the “folding stability dG unfold” value in series [1], in series [2] and in series [3] were 1.81 ± 0.1 kcal/mol, 0.528 ± 0.065 kcal/mol and 1.4 ± 0.15 kcal/mol, respectively.
For “SAGGSAGGSAGGSPPMPMRIDEVEYDPPNGRYEITVEPDNGNPQTITMPPGNIDEAYIVSAGGSAGGSAGGS [r4_51_TrROS]” the same measures were 0.978 ± 0.042 kcal/mol, 1.47 ± 0.12 kcal/mol and 1.15 ± 0.16 kcal/mol.
As for “SAGGSAGGSAGGSPSPLGKTRPALPASPVLKVPVTLPDDSLLTVYYDPLTGSLVVESYSSAGGSAGGSAGGS [r4_305_TrMRF]”, the entries for the “folding stability dG unfold” value in series [1], in series [2] and in series [3] were 0.414 ± 0.12 kcal/mol, 0.326 ± 0.026 kcal/mol and 0.467 ± 0.07 kcal/mol, respectively.
For “SAGGSAGGSAGGSPVEIKLKELPDGVLVAEATFTLENGETVKIKAVYDKKTKKLHFELVSAGGSAGGSAGGS [r4_13_TrROS_Hall]”, the entries for the “folding stability dG unfold” value in series [1], in series [2] and in series [3] were 3.5 ± 0.085 kcal/mol, 2.15 ± 0.086 kcal/mol and 3.09 ± 0.098 kcal/mol, respectively.
For “SAGGSAGGSAGGSPYVQIRFEIPVWKFKPGGWEPVNPMPIPIWVPADDPPAAKDIAEEISAGGSAGGSAGGS [r4_153_TrROS]”, the “folding stability dG unfold” value in series [1] is 0.839 ± 0.18 kcal/mol; in series [2] it was 0.724 ± 0.07 kcal/mol; in series [3], 0.849 ± 0.09 kcal/mol.
Turning to “SAGGSAGGSAGGSRTIYEPVPPDVAGTRLITFTSPDSEPLSTRTVSVTPVPGGRGAVILGSAGGSAGGSAGG [r7_64_JUSTAS]”, the entries for the “folding stability dG unfold” value in series [1], in series [2] and in series [3] were -0.918 ± 0.73 kcal/mol, -0.735 ± 0.44 kcal/mol and -0.599 ± 0.23 kcal/mol, respectively.
On to “SAGGSAGGSAGGSSAKDILDELKGITFFHPNGRRYRITDVEIEPHGDGWVLSIEMEPYPSAGGSAGGSAGGS [r4_299_TrROS]”, for which the “folding stability dG unfold” value is 3.05 ± 0.034 kcal/mol in series [1], 2.05 ± 0.057 kcal/mol in series [2] and 2.7 ± 0.059 kcal/mol in series [3].
With “SAGGSAGGSAGGSSGTSVSTEVSSSPVVTKTEYTKLDDGWSTTTTVVSTLPNALAPELTTSAGGSAGGSAGG [r7_845_JUSTAS]”, the “folding stability dG unfold” value turned out to be 0.255 ± 0.024 kcal/mol in series [1], 1.06 ± 0.082 kcal/mol in series [2] and 0.727 ± 0.079 kcal/mol in series [3].
Regarding “SAGGSAGGSAGGSSIEELRRSPEVEVEVSTEKLPNGKTVTTVTLTPPDGVPTTIVLPEGSAGGSAGGSAGGS [r4_70_JUSTAS]”, the entries for the “folding stability dG unfold” value in series [1], in series [2] and in series [3] were 1.17 ± 0.041 kcal/mol, 0.266 ± 0.075 kcal/mol and 0.978 ± 0.14 kcal/mol, respectively.
“SAGGSAGGSAGGSSITIEEEGGKLRITVTNENGEKSEFEFPPGAKITLPEGVKLELEKESAGGSAGGSAGGS [r4_447_TrROS_Hall]”: the results for the “folding stability dG unfold” value in series [1], in series [2] and in series [3] were 1.13 ± 0.019 kcal/mol, 0.549 ± 0.082 kcal/mol and 0.84 ± 0.073 kcal/mol, respectively.
For “SAGGSAGGSAGGSSLYVPGKGYIVERDEAKGYLVIKPIEPDGIVPDAEVFYKPPSVPLISAGGSAGGSAGGS [r4_409_JUSTAS]” the same measures were -0.102 ± 0.43 kcal/mol, -0.879 ± 0.22 kcal/mol and -0.271 ± 0.19 kcal/mol.
For “SAGGSAGGSAGGSSMTIEEQKEKIKKEVPLGKSVTIEYPDKTVTLTIDPKSGKITVTISSAGGSAGGSAGGS [r4_150_JUSTAS]” the same measures were 1.44 ± 0.021 kcal/mol, 0.61 ± 0.079 kcal/mol and 1.17 ± 0.12 kcal/mol.
For “SAGGSAGGSAGGSSMTLVTEETELPSPLRKVTKYTIDPKNPGKITSETTWYDPEGKPLGSAGGSAGGSAGGS [r4_297_JUSTAS]”, the figures for the “folding stability dG unfold” value in series [1], in series [2] and in series [3] were 0.362 ± 0.17 kcal/mol, -0.441 ± 0.33 kcal/mol and 0.0774 ± 0.17 kcal/mol, respectively.
In the case of “SAGGSAGGSAGGSSMVFELDGVRIVVTEDEVVFYPPETGKPVVLPMSNPEVQELIKELVSAGGSAGGSAGGS [r4_353_TrMRF]”, the “folding stability dG unfold” value in series [1] worked out at 1.78 ± 0.039 kcal/mol; in series [2], 1.87 ± 0.054 kcal/mol; in series [3] it was 1.82 ± 0.083 kcal/mol.
For “SAGGSAGGSAGGSSTILIPSSTSEEYAESLAKELKKKGNVKTSFDPSTGVLVLTLPGGSSSAGGSAGGSAGG [r7_219_JUSTAS]”, the “folding stability dG unfold” value is 0.0516 ± 0.2 kcal/mol in series [1], -0.962 ± 0.59 kcal/mol in series [2] and -0.17 ± 0.21 kcal/mol in series [3].
In the case of “SAGGSAGGSAGGSTGITSTFFDPKTGTVTTTTLVPSTGTTTTTVTPVTIPGPAATTTLTSAGGSAGGSAGGS [r10_331_JUSTAS]”, the “folding stability dG unfold” value in series [1] stood at 0.55 ± 0.052 kcal/mol; in series [2], 1.31 ± 0.067 kcal/mol; in series [3], 0.888 ± 0.045 kcal/mol.
Take “SAGGSAGGSAGGSTITISPEQPVEGLTIELDGKTIKVVSYTPEPKEGEPLLKVTVERLDSAGGSAGGSAGGS [r10_1098_JUSTAS]”: the “folding stability dG unfold” value in series [1] was -0.489 ± 0.33 kcal/mol; in series [2], -1.28 ± 0.86 kcal/mol; in series [3], -0.771 ± 0.81 kcal/mol.
The corresponding values for “SAGGSAGGSAGGSTLQSNASGIFTLYLAGSNLTVTLSKAELPKIPADFPIPSSATFTAGSAGGSAGGSAGGS [r4_91_JUSTAS]” are -0.41 ± 0.51 kcal/mol, 0.215 ± 0.16 kcal/mol and -0.196 ± 0.41 kcal/mol.
On to “SAGGSAGGSAGGSTPTPDGSPVEITLPDGTVVTFDPATNSITIATRTPDSVSTTPIPAAASAGGSAGGSAGG [r7_527_JUSTAS]”, for which the “folding stability dG unfold” value in series [1] was found to be 1.08 ± 0.037 kcal/mol; in series [2], 1.34 ± 0.031 kcal/mol; in series [3], 1.2 ± 0.035 kcal/mol.
As to “SAGGSAGGSAGGSVPSDVTVSILEIEPKEDKYLVLLRVPENGTLIEREFESLEEAKELLSAGGSAGGSAGGS [r10_1038_JUSTAS]”, the “folding stability dG unfold” value in series [1] was -0.51 ± 0.21 kcal/mol; in series [2], 1.16 ± 0.033 kcal/mol; in series [3], 0.645 ± 0.088 kcal/mol.
For “SAGGSAGGSAGGSVTVERYPDGKVTTTTTDPTRPVTTVTLAEVEPGPGKVLTETVTPVPSAGGSAGGSAGGS [r10_613_JUSTAS]” the same measures were 1.3 ± 0.14 kcal/mol, 0.835 ± 0.057 kcal/mol and 1.12 ± 0.1 kcal/mol.
Turning to “SAGGSAGGSAGGSVVPTTSYSPDGTLTLTTETVTPSSNGLTVTSSTTVRPLPTPASPAASAGGSAGGSAGGS [r10_1200_JUSTAS]”, the “folding stability dG unfold” value in series [1] stood at 1.01 ± 0.039 kcal/mol; in series [2] it was 1.35 ± 0.18 kcal/mol; in series [3] it was 1.04 ± 0.11 kcal/mol.
As to “SAGGSAGGSAGGSVVTRLPNGSYRYTVTRVSFDPKTGTWSSETTVLTVPPDRPVEIPPGSAGGSAGGSAGGS [r4_48_JUSTAS]”, the results for the “folding stability dG unfold” value in series [1], in series [2] and in series [3] were 2.26 ± 0.11 kcal/mol, 1.14 ± 0.049 kcal/mol and 1.89 ± 0.096 kcal/mol, respectively.
For “SAGGSAGGSAGGSVWIMIPLEEIKDLLPPGWTVEVEPQPMPNNGYIMVPVEIVPPDNAKSAGGSAGGSAGGS [r4_119_TrROS]” the same measures were 0.861 ± 0.13 kcal/mol, 0.0715 ± 0.047 kcal/mol and 0.552 ± 0.16 kcal/mol.
As to “SAGGSAGGSAGGSWTVTKEISREGDKVYISTVTTYVNPNGTPVTETETKEISPEEVAELESAGGSAGGSAGG [r11_690_JUSTAS]”, the “folding stability dG unfold” value in series [1] was 1.11 ± 0.14 kcal/mol; in series [2], 0.964 ± 0.037 kcal/mol; in series [3] it was 1.11 ± 0.11 kcal/mol.
With “SAGGSAGGSAGGVAVPKEGIEEFISQLPPDTVVTLYDPETGKDIKVTVSNGKVTISPEGSAGGSAGGSAGGS [r10_137_JUSTAS]”, the “folding stability dG unfold” value was found to be 1.02 ± 0.12 kcal/mol in series [1], 1.29 ± 0.12 kcal/mol in series [2] and 1.17 ± 0.12 kcal/mol in series [3].
In the case of “SAGGSAGGSAGGVEELKKALEKAGFKVVKVEVTEVKNPETKETTTKITVTLEDGSKLTITSAGGSAGGSAGG [r7_337_TrROS_Hall]”, the “folding stability dG unfold” value is 3.63 ± 0.058 kcal/mol in series [1], 3.95 ± 0.2 kcal/mol in series [2] and 3.72 ± 0.11 kcal/mol in series [3].
For “SAGGSAGGSAGGVIKTFTSPDNKKYTVTVNKDGSVTVETFDPETGKKSISTVSAAEASLSAGGSAGGSAGGS [r10_838_JUSTAS]”, the “folding stability dG unfold” value in series [1] turned out to be 0.828 ± 0.066 kcal/mol; in series [2], 1.32 ± 0.029 kcal/mol; in series [3], 1.18 ± 0.063 kcal/mol.
Regarding “SAGGSAGGSAGGVKEFDALAGGVPVKVKVYPDPDGNPRVEVIFPDGSKVTLSADEPLNLSAGGSAGGSAGGS [r10_989_TrMRF]”, the “folding stability dG unfold” value came out at 1.58 ± 0.08 kcal/mol in series [1], 2.26 ± 0.067 kcal/mol in series [2] and 1.87 ± 0.068 kcal/mol in series [3].
For “SAGGSAGGSAGGVKKGDKVTVLRVRLELKIKVEKTEDGSLKLTAELKLEISLVTVTAPDSAGGSAGGSAGGS [r10_297_TrROS_Hall]” the same measures were 5.2 ± 0.15 kcal/mol, 3.53 ± 0.14 kcal/mol and 5.06 ± 0.21 kcal/mol.
As for “SAGGSAGGSAGGVKPGQKVKVEIDGKTYEATVDEKNGTIYVTLPNGKKYKAKIVKVEKVSAGGSAGGSAGGS [r10_1185_TrROS_Hall]”, the “folding stability dG unfold” value came to 2.64 ± 0.05 kcal/mol in series [1], 1.79 ± 0.18 kcal/mol in series [2] and 2.38 ± 0.12 kcal/mol in series [3].
In the case of “SAGGSAGGSAGGVPPESVLLSEEKVGGKTVEIVRDPATGKLYRVTKVPGSDSIEVEELGLSAGGSAGGSAGG [r7_179_JUSTAS]”, the “folding stability dG unfold” value in series [1] was 2.549 ± 0.013 kcal/mol; in series [2] it was 2.2 ± 0.093 kcal/mol; in series [3], 2.43 ± 0.092 kcal/mol.
In the case of “SAGGSAGGSAGGVTIVIGTDKDIPAEVIEKEVADELLKAGIPPDVKVNVVVVPIDPDALSAGGSAGGSAGGS [r10_746_TrMRF]”, the results for the “folding stability dG unfold” value in series [1], in series [2] and in series [3] were 1.17 ± 0.087 kcal/mol, 1.1 ± 0.042 kcal/mol and 1.11 ± 0.1 kcal/mol, respectively.
For “SAGGSAGGSAGGWIRSPGGWWVNIDIEIFEIPIDKNMSPEMANKFKRVRIIVIEITVVKRSAGGSAGGSAGG [r7_324_TrROS]” the same measures were 4.7 ± 0.15 kcal/mol, 3.31 ± 0.16 kcal/mol and 3.84 ± 0.25 kcal/mol.
